From publication PMC5624926 (2017) come the findings set out here.

Where two headings read alike, the source gives them in different places.

For assay [1], the target named is T1, CD22_(20–687) (human, UniProt P20273 20-687, N-linked glycans; glycoform not stated). As to the kind of experiment: BLI. Background: Biolayer interferometry detects binding as a change in optical thickness at a sensor tip.
Assay [2] deals with T1, CD22_(20–687). As to the kind of experiment: BLI. This is another data set of the same source.

B1: epratuzumab Y(L27D)A (antibody, V domains shown)
VH: QVQLVQSGAEVKKPGSSVKVSCKASGYTFTSYWLHWVRQAPGQGLEWIGYINPRNDYTEYNQNFKDKATITADESTNTAYMELSSLRSEDTAFYFCARRDITTFYWGQGTTVTVSS
VL: DIQLTQSPSSLSASVGDRVTMSCKSSQSVLASANHKNYLAWYQQKPGKAPKLLIYWASTRESGVPSRFSGSGSGTDFTLTISSLQPEDIATYYCHQYLSSWTFGGGTKLEIKR
As a reminder, the Kd is a measure of binding affinity in units of concentration. A high value points to lower affinity. Regarding B1, in the assay with CD22_(20–687) [1], binding was characterised by a dissociation constant (Kd) of 1700 nM.

B2: epratuzumab Fab (Fab, V domains shown)
VH: QVQLVQSGAEVKKPGSSVKVSCKASGYTFTSYWLHWVRQAPGQGLEWIGYINPRNDYTEYNQNFKDKATITADESTNTAYMELSSLRSEDTAFYFCARRDITTFYWGQGTTVTVSS
VL: DIQLTQSPSSLSASVGDRVTMSCKSSQSVLYSANHKNYLAWYQQKPGKAPKLLIYWASTRESGVPSRFSGSGSGTDFTLTISSLQPEDIATYYCHQYLSSWTFGGGTKLEIK
Take B2: binding with CD22_(20–687) [2] was put at a Kd of 120 nM. This counts as sub-micromolar.

B3: epratuzumab N(H52)A (antibody, V domains shown)
VH: QVQLVQSGAEVKKPGSSVKVSCKASGYTFTSYWLHWVRQAPGQGLEWIGYIAPRNDYTEYNQNFKDKATITADESTNTAYMELSSLRSEDTAFYFCARRDITTFYWGQGTTVTVSS
VL: DIQLTQSPSSLSASVGDRVTMSCKSSQSVLYSANHKNYLAWYQQKPGKAPKLLIYWASTRESGVPSRFSGSGSGTDFTLTISSLQPEDIATYYCHQYLSSWTFGGGTKLEIKR
Regarding B3, in the assay with CD22_(20–687) [1], the Kd was 260 nM.
